Measured values as given in patent US12180286B2, “Anti-peripheral lymph node addressin antibodies and uses thereof” (The Brigham and Women's Hospital, Inc., priority 2019, dated 2024).

B1: MHA112: anti-PNAd monoclonal antibody, mouse IgM, VH SEQ ID NO:2 and VL SEQ ID NO:7 (antibody, V domains shown)
VH: QVQLKESGPGLVAPSQSLSITCTVSGFSLTSYGVDWVRQPPGKGLEWLGVIWGGGSTNYNSALMSRLSISKDNSKSQVFLKMNSLQTDDTAMYYCAKHSKGGYFDVWGTGTTVTVSS
VL: EIVLTQSPAITAASLGQKVTITCSASSSVSYMHWYQQKSGTSPKPWIYEISKLASGVPARFSGSGSGTSYSLTISSMEAEDAAIYYCQQWNYPLITFGAGTKLELK
modifications: mouse IgM constant regions; MHA112 Heavy chain; MHA112 Light chain

Key:
4T1 breast tumor cells = experiment: 4T1 breast tumor growth model; type: in vivo, BALB/c-WT mice; settings: equal to 160 ng free taxol every two days; n=12
Experimental: Mice were anesthetized with isoflurane and underwent subcutaneous injection with 4T1 breast tumor cells in the mammary glands (1×10^5 cells per mouse). Starting at 9 days post-implantation, free Taxol or MHA112-Taxol were administered every other day intraperitoneally for 24 days. Tumor growth was monitored two times per week by digital caliper.

[1] = tested on: 4T1 tumor-draining lymph nodes (TDLNs); experiment: Immunostaining of 4T1 tumor-draining lymph nodes (TDLNs); type: in vivo, mice; settings: 4T1 TDLNs, fluorescence micrographs
Text: Thus, the effect of the LN delivery of MHA112 in the tumor population in the LN was investigated. The extent of MHA112's ability to restore the overall structure of LN was also investigated. […] 4T1 tumor-draining lymph nodes (TDLNs) were cut by cryo-sectioning and stained with anti-HEV (sc-19602, SCBT), anti-LYVE1 (ab14917, Abcam), anti-Pan-Cytokeratin (C2931, Sigma), anti-collagen I (ab34710, Abcam), anti-collagen IV (ab6586, Abcam), and anti-laminin (ab11575, Abcam). […] The stained tissue sections were visualized using an EVOS™ FL Auto 2 Imaging System. […] The structure changes of TDLNs was also examined.

4T1 tumor cell lines = experiment: 4T1 breast tumor liver portal vein metastasis model, survival; type: in vivo, mouse; settings: 160 ng every other day intraperitoneally for 20 days, starting 4 hours post-implantation
Experimental: To investigate the effect of MHA112-Taxol on tumor metastasis, 4T1 tumor cell lines were gently injected into the portal vein (1×10^4 cells per mouse) of mouse liver. Starting 4 hours post-implantation, 160 ng of free Taxol or MHA112-taxol were administered every other day intraperitoneally for 20 days. Survival was monitored every day.
(§1) Glutaric anhydride (100 mg, Sigma-Aldrich) and taxol (33 mg, LC laboratories) were prepared in a 4 mL vial dried under high vacuum for 24 hours and dissolved in 1 mL of pyridine. The solution was stirred at room temperature under Ar atmosphere for 2 hours. The reaction was quenched by removal of solvent under high vacuum for 2 hours. 2′-Glutaryl taxol was purified by a reversed phase HPLC (Phenomenex Luna 5 μm C18 250×10.0 mm, flow rate 2 mL/min, UV 250 nm detection) with a gradient solvent system (15% to 75% ACN/H2O with 0.1% formic acid for 40 minutes). 2′-glutaryl taxol (0.2 mg) dissolved in DMSO (Thermo Scientific Fisher) was activated with 1-ethyl-3-(3-dimethylaminopropyl)carbodiimide hydrochloride (EDC, 0.4 mg, Sigma-Aldrich) and Sulfo-NHS (N-hydroxysulfosuccinimide) (1.1 mg, Thermo Scientific Fisher) for 15 minutes at room temperature in MES buffer (pH 6.0, Thermo Scientific Fisher) (final solution; ˜1 mL in 10% DMSO). The EDC was quenched by 2-mercaptoethanol (1.4 μL, Sigma-Aldrich) for 10 min. […]

[2] = tested on: Panc02 pancreas tumor cells; experiment: Panc02 pancreas tumor model, survival; type: in vivo, mice; settings: 160 ng every other day intraperitoneally for 20 days, starting 4 hours post-implantation
Experimental: Mice were anesthetized with isoflurane, and Panc02 pancreas tumor cells were gently injected in pancreas of mice. Two million cells (2×10^6 cells) were injected per mouse for Panc02 tumor model. Starting 4 hours post-implantation, 160 ng of free Taxol or MHA112-taxol were administered every other day intraperitoneally for 20 days. Survival was monitored every day.
as §1

[3] = tested on: high endothelial venules (HEVs) of mice lymph nodes (LNs); experiment: Immunofluorescence staining of HEVs in mice lymph node sections; type: binding; settings: hybridoma supernatant
Text: (§2) Two of GlcNAc6ST1/2/4 triple knock-out (KO) mice, which lack the peripheral lymph node vascular addressin (PNAd), were immunized with Chinese hamster ovary (CHO) cell lines expressing CD34 decorated with sialyl Lewis^X (sLeX)-type glycans. MHA112 single hybridoma clone was identified by HEV immunofluorescence staining. The supernatant of MHA112 hybridoma culture was collected and used to stain mice lymph nodes (LNs) and human tonsil section.
(§3) Two of GlcNAc6ST1/2/4 triple KO mice, which lack the PNAd, were immunized with CHO cell lines expressing CD34 decorated with sLeX-type glycans. After the 3rd immunization, mice were sacrificed for hybridoma. Around 500 single clones were screened by HEV staining. Monoclonal antibody MHA112 against mice and human HEV was identified.
(§4) Fresh LNs were embedded in tissue-freezing medium. Cryostat sections (8 μm thick) were cut for imaging by fluorescence confocal microscopy. MHA112 was used for tissue staining as primary antibody. Alexa Fluor 488-conjugated anti-mouse IgM was used as secondary antibody. DAPI was used to stain the cell nuclei.

[4] = tested on: high endothelial venules (HEVs) of human tonsil; experiment: Immunofluorescence staining of HEVs in human tonsil section; type: binding; settings: hybridoma supernatant
Text: as §2, §3, §4

T cells homing to LNs = experiment: Blocking of labeled T cell homing to LNs (flow cytometry); type: in vivo, C57BL/6 mice; settings: 200 μg i.p. 2 hours before T cell injection, 19 hours after transfer
Experimental: To test whether MHA112 mAb can block T cells homing to LNs in vivo, T cells were labeled with fluorescein isothiocyanate (FITC) florescence dye and transferred into naïve mice, and their distribution assessed 19 hours later. MHA112 (anti-HEVs) reduced the number of transferred T cells that entered Axillary (Axi), Inguinal (Ing) and Brachial (Bra) LN by over 25% (FIG. 4). […] Labeled T cells that entered spleen were not changed in three groups (FIG. 4).
Spleens were harvested from three C57BL/6 mice. Single cell suspensions were prepared, and cells were positively enriched for T cells with MACS reagents and columns (Miltenyi Biotech, Bergisch Gladbach, Germany) according to the manufacturer's instructions. For injection, T cells were labeled with CellTracker Green (Thermo Fisher) and resuspended in sterile saline, and 5 million T cells were injected in 100 μl each mouse. Blocking antibodies MHA112 and MECA79 were administered intraperitoneally (i.p.) at 200 μg in 200 μl per mouse 2 hours before T cell injection. 19 hours after transfer, mice were euthanized and LNs were processed for flow cytometry.

[5] = tested on: CHO cells expressing PNAd (CHO-PNAd); experiment: Cell-based ELISA binding affinity
Experimental: To compare the affinity of MHA112 with MECA79, cell-based ELISA was performed. CHO cells expressing PNAd (CHO-PNAd) (2×10^4) were coated onto 96-well plates and incubated overnight at 37° C. After five washes with phosphate buffered saline (PBS), the plates were fixed with 1% paraformaldehyde (PFA) and blocked with 3% bovine serum albumin (BSA). MECA79 and MHA112 were serially diluted from 1 ng/ml to 300 μg/ml. After five washes in PBST, horseradish peroxidase-(HRP-)conjugated goat anti-mouse and anti-rat secondary antibodies were added at a 1:10,000 dilution and incubated for 1 hour at room temperature. Binding was detected with the addition of TMB (3,3′,5,5′-tetramethylbenzidine) substrate, and the reaction was stopped by adding TMB Stop Solution (N600, Thermo Scientific). Absorbance signals were read at 450 nm.

Molecule	growth of 4T1 mouse breast tumors versus control group treated with PBS (4T1 breast tumor cells)	expansion of HEVs and lymphatics (LYVE1) in TDLNs [1]	median survival time (MST) (4T1 tumor cell lines)	median survival time (MST) [2]	staining of HEVs structure [3]	staining of HEVs structure [4]	reduction of number of transferred T cells that entered Axillary, Inguinal and Brachial LN (T cells homing to LNs)	reduction of number of T cells that entered mesenteric LNs (T cells homing to LNs; of PBS controls)	binding affinity higher than MECA79 [5]	Kd ([5]; fitting curves, absorbance 450 nm)
CC(=O)O[C@H]1C(=O)[C@@]2(C)[C@H]([C@H](OC(=O)c3ccccc3)[C@]3(O)C[C@H](OC(=O)[C@H](O)[C@@H](NC(=O)c4ccccc4)c4ccccc4)C(C)=C1C3(C)C)[C@]1(OC(C)=O)CO[C@@H]1C[C@@H]2O [free Taxol, taxol]	significantly slower growth	expanded	37 days	32 days	–	–	–	–	–	–
B1	–	–	–	–	stained	stained	over 25%	around 12%	30%	0.97 nM
